Results from the supplement of paper PMC10567573.

B1: STK38L (parent)
chain: RQLAYSTVGTPDYIAPEVFMQTGY

Variants of: B1
Experiment: protein stability index of a GFP-peptide fusion (GPS, HEK-293T) (PSI 1-6); higher = more stable
Settings: c terminus: a fixed tail appended
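Also: lentivirally expressed fusions sorted by FACS into six bins by GFP to DsRed ratio, PSI derived from sequencing read proportions per bin multiplied by bin number.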

Variant | protein stability index
V18M | 2.29
V18K | 2.25
V18A | 2.46
V18Y | 3.3
V18L | 1.8
V18F | 2.28
V18I | 2.09
V18H | 2.51
V18D | 3.57
V18N | 2.97
V18W | 1.92
V18R | 2.66
V18T | 2.73
V18S | 3.06
V18G | 3.16
L3G | 2.74
L3D | 3.37
L3W | 1.53
L3F | 2.33
L3V | 2.73
L3H | 2.43
L3A | 2.55
L3T | 2.84
L3N | 2.56

Variant | protein stability index
L3K | 2.68
L3C | 2.06
L3P | 2.44
L3S | 2.65
G23T | 2.06
G23D | 2.83
G23Q | 2.28
G23Y | 1.86
G23M | 1.63
G23R | 2.83
G23I | 1.99
G23W | 1.6
G23H | 2.16
G23F | 1.52
G23P | 2.35
G23A | 2.34
T10V | 2.27
T10W | 1.72
T10D | 2.16
T10P | 2.48
T10L | 1.96
T10F | 1.73
T10Y | 1.72
T10H | 2.36

Variant | protein stability index
T10S | 1.42
T10C | 2.18
T10Q | 3.41
T10A | 2.88
T10R | 2.86
T10I | 1.3
M20F | 2.06
M20S | 3
M20N | 2.87
M20I | 2.14
M20R | 2.43
M20A | 2.78
M20W | 1.95
M20T | 2.85
M20C | 2.63
M20K | 2.76
M20D | 3.97
M20E | 2.65
M20P | 3.25
M20Q | 4.34
M20V | 3.1
P16Y | 1.89
P16C | 2.29
P16I | 3.9

Variant | protein stability index
P16T | 1.82
P16E | 2.96
P16Q | 2.35
P16K | 1.91
P16G | 1.96
P16R | 2.12
P16L | 1.57
P16A | 2.3
P16H | 2.17
P16F | 2.79
P16D | 2.46
Y13C | 3
Y13L | 2.15
Y13T | 2.92
Y13P | 2.75
Y13W | 1.88
Y13A | 2.9
Y13G | 3.08
Y13H | 2.42
Y13V | 2.33
Y13I | 3.12
Y13N | 3.57
Y13K | 2.92
Y13F | 1.93

Variant | protein stability index
Y13D | 3.26
Y13E | 3.29
V8F | 2.18
V8T | 2.83
V8E | 3.29
V8A | 2.59
V8D | 3.27
V8S | 2.6
V8Y | 1.74
V8L | 2.37
V8G | 2.76
V8H | 2.92
V8W | 2.5
V8M | 2.87
V8P | 2.51
V8K | 2.98
V8I | 2.58
Q2T | 2.53
Q2V | 1.46
Q2W | 1.27
Q2H | 1.79
Q2F | 2.55
Q2I | 1.61
Q2R | 3.34

Variant | protein stability index
Q2A | 2.45
Q2S | 2.4
Q2G | 1.84
Q2D | 2.69
Q2L | 1.7
Q2Y | 1.88
Q2C | 2.42
Q2E | 2.3
I14Q | 2.66
I14G | 2.65
I14D | 2.81
I14A | 3.13
I14Y | 2.28
I14M | 2.4
I14S | 3.12
I14W | 1.95
I14L | 2.92
I14H | 2.57
I14F | 1.57
I14K | 3.11
R1F | 3.13
R1Y | 2.51
R1P | 3.41
R1E | 3.06

Variant | protein stability index
R1G | 1.95
R1M | 1.79
R1V | 2.45
R1T | 2.56
R1S | 2.38
R1K | 2.71
R1C | 2.06
S6W | 2.5
S6C | 1.84
S6R | 2.79
S6L | 2.08
S6D | 2.55
S6T | 2.21
S6E | 3.3
S6M | 1.79
S6Q | 2.25
S6V | 1.45
S6F | 1.65
S6H | 2.63
F19T | 3.61
F19N | 3.22
F19A | 3.68
F19V | 2.71
F19H | 2.76

Variant | protein stability index
F19R | 3.81
F19L | 2.92
F19Q | 3.11
F19D | 4.07
F19S | 2.78
F19E | 3.38
F19C | 3.08
F19G | 3.53
F19M | 2.82
Y24A | 3.35
Y24Q | 3.53
Y24D | 4.18
Y24P | 3.25
Y24L | 2.44
Y24H | 3.26
Y24M | 2.67
Y24T | 3.42
Y24E | 4.54
Y24G | 3.43
Y24F | 2.19
Y24I | 2.63
Y24R | 3.06
T7M | 1.84
T7L | 2.1

Variant | protein stability index
T7Y | 2.07
T7S | 2.11
T7Q | 3.12
T7N | 2.51
T7V | 2.04
T7G | 2.62
T7P | 3.26
T7K | 2.41
T7W | 1.79
T7C | 2.07
T7I | 2.04
T7F | 1.62
T7R | 2.52
T7E | 3.02
A4K | 3.29
A4E | 2.8
A4F | 1.89
A4W | 1.64
A4T | 2.55
A4Q | 3.1
A4Y | 2.17
A4N | 2.52
A4H | 2.61
A4L | 2.69

Variant | protein stability index
A4G | 2.86
A4P | 2.39
A4R | 2.75
Q21P | 2.49
Q21V | 1.11
Q21H | 2.79
Q21E | 3.22
Q21S | 2.74
Q21R | 2.62
Q21L | 1.7
Q21T | 2.42
Q21G | 2.27
Q21W | 1.82
Q21I | 1.65
Q21Y | 1.51
T22H | 2.63
T22G | 3.65
T22L | 1.96
T22V | 1.68
T22W | 1.36
T22I | 2.39
T22A | 2.13
T22F | 2.09
T22C | 2.24

Variant | protein stability index
T22R | 2.85
T22D | 3.02
T22P | 3.18
T22E | 3.46
T22K | 2.32
T22N | 2.98
D12I | 1.81
D12E | 2.43
D12H | 2.54
D12N | 2.76
D12S | 2.68
D12V | 1.59
D12A | 2.21
D12Q | 2.72
D12T | 2.91
D12W | 2.08
D12L | 2.43
D12C | 1.98
D12M | 2.59
D12K | 2.31
D12Y | 1.82
D12G | 2.11
P11N | 2.78
P11G | 3

Variant | protein stability index
P11F | 1.85
P11Y | 2.57
P11W | 2.29
P11K | 2.59
P11C | 2.57
P11I | 2
P11V | 1.89
P11A | 2.64
P11D | 2.36
P11R | 1.8
E17R | 2.71
E17S | 2.21
E17G | 2.39
E17T | 1.98
E17N | 1.97
E17Q | 2.22
E17D | 2.79
E17L | 1.76
E17C | 1.8
E17M | 1.68
E17W | 1.44
E17H | 2.22
E17F | 1.9
A15H | 2.1

Variant | protein stability index
A15L | 2.3
A15N | 2.21
A15I | 1.43
A15T | 2.4
A15P | 3.29
A15R | 2.27
A15F | 1.98
A15E | 3.15
A15C | 2.57
A15Y | 1.68
A15S | 2.78
A15D | 2.93
A15V | 2.28
A15Q | 3.4
A15K | 2.46
Y5V | 2.36
Y5C | 2.38
Y5D | 3.59
Y5R | 2.81
Y5E | 3.13
Y5Q | 3.43
Y5A | 3.06
Y5W | 2.13
Y5N | 3.26

Variant | protein stability index
Y5I | 2.83
Y5F | 2.44
Y5K | 2.58
Y5S | 2.93
Y5G | 3.03
Y5P | 3.42
Y5L | 2.84
Y5M | 2.95
G9N | 2.62
G9T | 2.7
G9V | 1.98
G9R | 2.65
G9H | 2.42
G9I | 2.17
G9A | 2.63
G9S | 2.37
G9F | 2.27
G9W | 1.89
G9L | 3.14
G9K | 2.24
G9D | 3.15
G9E | 2.71
